{
  "source": "the DeepSol protein solubility set",
  "data": [
    {"assay": "soluble on expression in E. coli; label from the status in PepcDB or PDB records", "values": [
      {"sequence": "MSLIREQVVRPLNAMVDASEKIKNRNFDVMLEETSSTEMGILSRTFNSMAGDLGKLYRGLEHAVNEKTNKLQMANQSLQVLYHSSQELTASRITASNFQTILRHWVALEGICALRLEIEEEAGKPLILQEGKPSGAVMLQTPLTLDGHHLGFLYWEAGSPEPDRALIDNFALILSRAIYYNQAQRQAEQLLLMEERATIARELHDSLAQSLSYLKIQLTLLKRSVTPLKSDGDLSKTENIIREIDKGLSDAYTQLRELLTTFRLTLTEGSFGQSLLGMLTQLSGQTDAKIELNNALSSIALDAHQQVHLVQLIREATINAIKHAKATKIKVNCQEQQGRVQVTIEDDGVGFDLQDHKINHYGMSIMQERAARLRGELKVESAPGKGCKVVLTYQQSEEKNKNEEGHHHHHH", "soluble on expression in E. coli": "soluble"},
      {"sequence": "MSLIRSMTGFGRASNDNGRLGFNVEIKSVNHRYFDLNIKLPRNLISLEEKIRKEVGNKIKRGKVDIFITQNVYDSSTTNVNLNKGLAYNYCECLKQIRDDFNVLDDISVSLISKFPDVITVTQNEEDLDEISSLLLKPINEAVDTMLSMREKEGARLKEDIEGKLTNIEELLVNVEKRAPYTVENYRNKLEERIKDLLVDNQVDEAKLAMEVTIFADKSCIDEEIVRLKSHISQFKSTLSENEPVGRKLDFIVQEMNREANTINSKSNDIDIVHCVLDIKNEIEKIREQIQNIEEGHHHHHH", "soluble on expression in E. coli": "soluble"},
      {"sequence": "MSLIVVTGGAGFIGSHVVDKLSESNEIVVIDNLSSGNEEFVNEAARLVKADLAADDIKDYLKGAEEVWHIAANPDVRIGAENPDEIYRNNVLATYRLLEAMRKAGVSRIVFTSTSTVYGEAKVIPTPEDYPTHPISLYGASKLACEALIESYCHTFDMQAWIYRFANVIGRRSTHGVIYDFIMKLKRNPEELEILGNGEQNKSYIYISDCVDAMLFGLRGDERVNIFNIGSEDQIKVKRIAEIVCEELGLSPRFRFTGGDRGWKGDVPVMLLSIEKLKRLGWKPRYNSEEAVRMAVRDLVEDLDEEGHHHHHH", "soluble on expression in E. coli": "soluble"},
      {"sequence": "MSLKAIIYCRVSTEKTSQETSLARQKHELLTLANKHALEVVATLEERASGFSLDRPVLLECIDAFQRGQADILLCQDDTRLARGHSKIALLHQLRKLGVSIYTIRDQGELRLSEADEMVLDIVAIVEEYQRKLHNKKIKRGMKQAVKNGYRPERNIKQGVSGGRERKELPIKEIVRLRQKNLTFHEIALTLQGLGFNVSKATVHRRYQEYMDEQLHGEGHHHHHH", "soluble on expression in E. coli": "soluble"},
      {"sequence": "MSLKDGKLGLPIPEAVKIIPELNNYVINGKLDFSNRQARILYNKAIAKALFGLDIEYHPKGLVTTPISRYIFLKTFLRGGEVALEIGTGHTAMMALMAEKFFNCKVTATEVDEEFFEYARRNIERNNSNVRLVKSNGGIIKGVVEGTFDVIFSAPPYYDKPLGRVLTEREAIGGGKYGEEFSVKLLEEAFDHLNPGGKVALYLPDKEKLLNVIKERGIKLGYSVKDIKFKVGTRWRHSLIFFKGISEGHHHHHH", "soluble on expression in E. coli": "soluble"},
      {"sequence": "MSLKEKLVAIVGPTAVGKTKTSVMLAKRLNGEVISGDSMQVYRGMDIGTAKITAEEMDGVPHHLIDIKDPSESFSVADFQDLATPLITEIHERGRLPFLVGGTGLYVNAVIHQFNLGDIRADEDYRHELEAFVNSYGVQALHDKLSKIDPKAAAAIHPNNYRRVIRALEIIKLTGKTVTEQARHEEETPSPYNLVMIGLTMERDVLYDRINRRVDQMVEEGLIDEAKKLYDRGIRDCQSVQAIGYKEMYDYLDGNVTLEEAIDTLKRNSRRYAKRQLTWFRNKANVTWFDMTDVDFDKKIMEIHNFIAGKLEEKSKEGHHHHHH", "soluble on expression in E. coli": "soluble"},
      {"sequence": "MSLKEYKSKIEFSVYSTSGMKTRMEDYYLCIKNMNKMIQKEKKELTYFGVFDGHVGTSAADYCNFKLYNEIVRSKSFPKNIENAIQDGIINVENGFKEIAMKTKVNAGTTLAIVMIYDNTIYTANVGDSEIVVCYNDGSYVVTSEKHNPSVDKEKARIESAGGKVFYNHGWRVDGLLGVSRSIGDESMKKYVICQPKIWSKAIDSSFQFIIVACDGFWNVFKYEDAINLARNYLFNYSFSNEEDKDSNGIILPRNKGDVSRYLIDIALKRQSFDNITVTICYFNEGHHHHHH", "soluble on expression in E. coli": "soluble"},
      {"sequence": "MSLKGSLMPANVLFSARSELWPVYQPLISTYLREMGIDFDLRRDFPPEEVDYVVYAPNGGLRDFTPFTRLKAVLSLWAGVESIADNPTLTVPLARMVDHGLTQGMTEWVVGHVLRYHLGMDAHIHGLNGDWRQDVPPLASQRQVTILGLGALGEAAARALSALGFQVTGWSRSPKELPGIACLHGPDGLDQALARAEILVLLLPSTAATENTLNTQTLARLPRGARIINPGRGPLIDDDALLAALDSGQVGHATLDVFRIEPLPRDHPYWGHPNVTVTPHIASETRPETAAQVICEEGHHHHHH", "soluble on expression in E. coli": "soluble"},
      {"sequence": "MSLKHLIKNYVQKLIKTELDAIQSKSVHDNRNFIYNGEFLILESEFGLHCFPRVQLNHALSYKNPNFDLGMRHWIVNHCKHDTTYIDIGANVGTFCGIAARHITQGKIIAIEPLTEMENSIRMNVQLNNPLVEFHHFGCAIGENEGENIFEVYEFDNRVSSLYFQKNTDIADKVKNSQVLVRKLSSLDISPTNSVVIKIDAEGAEIEILNQIYEFTEKHNGIEYYICFEFAMGHIQRSNRTFDEIFNIINSKFGSKAYFIHPLSSAEHPEFNKATQDINGNICFKYVSEGHHHHHH", "soluble on expression in E. coli": "soluble"},
      {"sequence": "MSLKHLKGNKNTFQKRMYCKKTEIDLSKSGTGLFPGAFYMNRHVKRVILPDYADTVPANLFKGCINLKEVTLPIDPNIGEAAFEGCISLTDIHIPLCIGSIATNAFRGCRENIRFYADSPAVNPKTLKQHIEKELGHSIELYNASGNLVESTEGHHHHHH", "soluble on expression in E. coli": "soluble"},
      {"sequence": "MSLKIDIHPLTHDPTSAWKELSKSQRVIKINTKPPAVDVPSNKVRVVCMSDTHSLTHHIKFDIPDGDIFIHAGDFTRCGKLDEVVDFNEWLKKLPHKHKLVIAGNHELSFDHTFTHPFQNASACCKKTGSTLLDEIPTLGNSKESLAEAVKTENIRQYLSSCTYLQDECVELYGLKIYGTPWQPEFCKWAFNVKRGQACLEKWEQIPENVDILVTHTPPVGHGDLCCSGVRAGCVELLATVQQRVKPKYHVFGHVHEGYGITSDGRIIFVNASTCDINYLPNNQPIVFDVTLPKGRTKDEGHHHHHH", "soluble on expression in E. coli": "soluble"},
      {"sequence": "MSLKIKFKRLDYQEQCRDQILGVFKGIDLKEPENDAQRISNPVFEIGAIKDLLLENIENLRSKQKITQGSVGIDKSLNCDILMETGTGKTFCFLECVYALHKNHHLSKFIVLTPSNAIKLGVLKSVEITREFFKSEYSNTHLESYEDIERFILASNHKCCVLVMTFSAFNKEKNTINKSCLENTNLFNGATSYMQALVSMRPIVIMDEPHRFLGDKTKKYLEQLNALLTLRFGATFKDDYNNLIYTLDSKKAFDCALVKSISVASVGESNECFLELKGIEKKEAAINYTDLENKTQSVKVKEHDNLGVVTQISALEDYIVEKITKTEIRFLNGFNLLLDQKEPFSHLLEGEQEVMLKEAIKSHFEREEGLFKKGIKALCMVFISGVNSYLSENEKPAKLALLFEKLYQQKLEEVLKKPLDENYRAYLECTREDIKKVHGGYFAKSKKEGDETKTIELILKEKEKLLSFDSDLRFIFSQWALQEGWDNPNVMTICKLAPSHSNITKLQQIGRGLRLAVNDKGERITKEHADFDFVNELVVIVPQVEGDFVGAIQQEISEHSLIKQEFSAEELEKSGVVKKGRYGFLLETLEGLGFGEKTGDENFKLTLNQNEFLEKEPELEKLKDEKYLDFEKLKDFLKDRLIGNSRVRDKNERKSEKIKINKENFKKFETLWESLNHQARIAYAIDSESLIDEIVKNINSSFNVSSKIVSVTTHKKVETMGNNAKTEIFERENACVWSLHEFISALSNKVKLSFKSVAKVLENIDENKFNEIKKNEQEGLRRLEELFLEIIYQNIKDKISYQMRETTIKNRKNDAFYDEKGEIREFLDGSLGADKYEIKNSSVREKCLYENFMQVDSEIEKDTIEESNDTKIIVFGKLPRVKIPIGLNQTYSPDFGYVVENNDKKVLLVVETKGVDKKSELRPEEERKISTAKKFFEALKKQGVNIEYKTKMEKDQLSALINEVLNRKDEGHHHHHH", "soluble on expression in E. coli": "not soluble"},
      {"sequence": "MSLKILLLEDEVMLNESICEYLDSEGHHVESFFNGLAALEAIKENSYDLLVLDINVPGIDGLSFLEKIHELKIHVSVIYISALVDIEDISRAYTLGCHDYLKKPFHLKELSLRVDRIKLSSVVPRVHLRLCKNYSYDQENSTLLFNQEVQILTKRQAQIIDLLSRNRGRIVDFEQFQTYVWSEQIVDNATIRAEINRLKKNLKEDFVINVRGMGYMIDKEGHHHHHH", "soluble on expression in E. coli": "not soluble"}
    ]}
  ]
}
